Here are results for one protein from paper PMC6648343, “Remodeling and destabilization of chromosome 1 pericentromeric heterochromatin by SSX proteins” (Nucleic Acids Research, 2019).

The data set deals with the molecule itself. In words: cross-linking; recombinant SSX2 diluted to indicated concentrations in 20 mM PBS (pH 7.4), 50 mM NaCl; 0.1% glutaraldehyde, 2 min at 37°C, quenched with glycine; oligomerization analysed by Western blotting.

B1: recombinant SSX2 (natural protein, UniProt Q16385 1-188, looked up)
chain: MNGDDAFARRPTVGAQIPEKIQKAFDDIAKYFSKEEWEKMKASEKIFYVYMKRKYEAMTKLGFKATLPPFMCNKRAEDFQGNDLDNDPNRGNQVERPQMTFGRLQGISPKIMPKKPAEEGNDSEEVPEASGPQNDGKELCPPGKPTTSEKIHERSGPKRGEHAWTHRLRERKQLVIYEEISDPEEDDE
notes: SSX2; GenBank CAA60111.1 is printed for SSX2 in the structure modelling; also called recombinant, purified SSX2; source: recombinant, purified
In the case of B1, the binding result is “binds”.
